Reference: PMC9352680, “A comprehensive thermodynamic model for RNA binding by the Saccharomyces cerevisiae Pumilio protein PUF4”

T1: PUF4 RNA-binding domain (Saccharomyces cerevisiae, UniProt P25339 537-888)
T1 sequence: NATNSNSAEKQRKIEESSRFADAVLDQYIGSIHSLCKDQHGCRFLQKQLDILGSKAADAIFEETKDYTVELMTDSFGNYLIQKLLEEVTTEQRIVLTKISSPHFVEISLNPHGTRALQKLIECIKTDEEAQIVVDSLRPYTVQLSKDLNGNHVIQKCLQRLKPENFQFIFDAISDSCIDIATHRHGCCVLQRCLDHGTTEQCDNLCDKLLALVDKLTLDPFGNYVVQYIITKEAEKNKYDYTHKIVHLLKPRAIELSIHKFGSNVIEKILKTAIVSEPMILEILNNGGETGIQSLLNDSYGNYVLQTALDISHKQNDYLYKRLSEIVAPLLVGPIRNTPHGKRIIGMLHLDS

B1: Ic_S1_P5E.1_K5.1_C5.1_H5.1_A5.1_[T5A]_[T6G]_[A7T]_F5.1_[T8A]_[T9A]_[A10C]_T5.1 (ssRNA)
RNA: UCUCUUUGUAAGUAACUCUCUU
B2: Ic_S1_P5E.1_K5.1_C5.1_H5.1_A5.1_[T5G]_[T6C]_F5.1_[T8C]_T5.1 (ssRNA)
RNA: UCUCUUUGUAGCACUAUCUCUU
B3: Ib_S1_P3E.1_K3.1_C3.1_H3.1_[T1A]_[A4G]_A3.1_F3.1_T3.1 (ssRNA)
RNA: UCUCUUAGUGUAUAUCUCUU
B4: Ic_S1_P5E.1_K5.1_C5.1_H5.1_A5.1_[T5A]_[T6C]_[A7C]_F5.1_[T8C]_[T9A]_T5.1 (ssRNA)
RNA: UCUCUUUGUAACCCAAUCUCUU
B5: Ic_S1_P5E.1_K5.1_C5.1_H5.1_A5.1_[T5A]_[T6A]_[A7T]_F5.1_[T8A]_[T9A]_[A10C]_T5.1 (ssRNA)
RNA: UCUCUUUGUAAAUAACUCUCUU
B6: Ic_S1_P5E.1_K5.1_C5.1_H5.1_A5.1_[T6G]_[A7C]_F5.1_[T8A]_T5.1 (ssRNA)
RNA: UCUCUUUGUAUGCAUAUCUCUU
B7: Ic_S1_P5E.1_K5.1_C5.1_H5.1_A5.1_[T5C]_[T6G]_[A7C]_F5.1_[T8C]_[T9C]_[A10C]_T5.1 (ssRNA)
RNA: UCUCUUUGUACGCCCCUCUCUU
B8: Ic_S1_P5E.1_K5.1_C5.1_H5.1_A5.1_[T6G]_[A7T]_F5.1_[T8G]_[T9G]_[A10T]_T5.1 (ssRNA)
RNA: UCUCUUUGUAUGUGGUUCUCUU
B9: Ic_S1_P5E.1_K5.1_C5.1_H5.1_A5.1_[T5C]_[T6C]_[A7C]_F5.1_[T8G]_[T9A]_[A10T]_T5.1 (ssRNA)
RNA: UCUCUUUGUACCCGAUUCUCUU
B10: Ic_S1_P5E.1_K5.1_C5.1_H5.1_A5.1_[T6G]_F5.1_[T8C]_[T9C]_T5.1 (ssRNA)
RNA: UCUCUUUGUAUGACCAUCUCUU
B11: Ic_S1_P5E.1_K5.1_C5.1_H5.1_A5.1_[A7T]_F5.1_[T8G]_[T9C]_[A10T]_T5.1 (ssRNA)
RNA: UCUCUUUGUAUUUGCUUCUCUU
B12: Ic_S1_P5E.1_K5.1_C5.1_H5.1_A5.1_[A7C]_F5.1_[T8G]_[T9G]_[A10T]_T5.1 (ssRNA)
RNA: UCUCUUUGUAUUCGGUUCUCUU
B13: Ic_S1_P5E.1_K5.1_C5.1_H5.1_A5.1_[T5A]_[T6C]_[A7T]_F5.1_[T8C]_[T9G]_[A10G]_T5.1 (ssRNA)
RNA: UCUCUUUGUAACUCGGUCUCUU
B14: Ib_S1_P3E.1_K3.1_C3.1_H3.1_[G2C]_[T3G]_A3.1_F3.1_T3.1 (ssRNA)
RNA: UCUCUUUCGAUAUAUCUCUU
B15: Ic_S1_P5E.1_K5.1_C5.1_H5.1_A5.1_[T5A]_[T6C]_[A7C]_F5.1_[T9C]_[A10G]_T5.1 (ssRNA)
RNA: UCUCUUUGUAACCUCGUCUCUU
B16: Ic_S1_P5E.1_K5.1_C5.1_H5.1_A5.1_[T5A]_[T6A]_[A7T]_F5.1_[T9G]_[A10T]_T5.1 (ssRNA)
RNA: UCUCUUUGUAAAUUGUUCUCUU
B17: Ic_S1_P5E.1_K5.1_C5.1_H5.1_A5.1_[T5A]_[T6A]_F5.1_[A10G]_T5.1 (ssRNA)
RNA: UCUCUUUGUAAAAUUGUCUCUU
B18: Ic_S1_P5E.1_K5.1_C5.1_H5.1_A5.1_[T5A]_[T6A]_[A7T]_F5.1_[A10T]_T5.1 (ssRNA)
RNA: UCUCUUUGUAAAUUUUUCUCUU
B19: Ic_S1_P5E.1_K5.1_C5.1_H5.1_A5.1_[T5A]_F5.1_[T8A]_[A10T]_T5.1 (ssRNA)
RNA: UCUCUUUGUAAUAAUUUCUCUU
B20: Ic_S1_P5E.1_K5.1_C5.1_H5.1_A5.1_[T5C]_[T6A]_[A7C]_F5.1_[T9C]_[A10C]_T5.1 (ssRNA)
RNA: UCUCUUUGUACACUCCUCUCUU
B21: Ic_S1_P5E.1_K5.1_C5.1_H5.1_A5.1_[T5C]_[T6G]_[A7C]_F5.1_[T8G]_[A10C]_T5.1 (ssRNA)
RNA: UCUCUUUGUACGCGUCUCUCUU
B22: Ic_S1_P5E.1_K5.1_C5.1_H5.1_A5.1_[T5C]_[T6A]_F5.1_[T9A]_T5.1 (ssRNA)
RNA: UCUCUUUGUACAAUAAUCUCUU
B23: Ic_S1_P5E.1_K5.1_C5.1_H5.1_A5.1_[T5G]_[T6C]_F5.1_[T9A]_[A10G]_T5.1 (ssRNA)
RNA: UCUCUUUGUAGCAUAGUCUCUU
B24: Ic_S1_P5E.1_K5.1_C5.1_H5.1_A5.1_[T5A]_[A7C]_F5.1_[T9C]_[A10T]_T5.1 (ssRNA)
RNA: UCUCUUUGUAAUCUCUUCUCUU
B25: Ib_S1_P3E.1_K3.1_C3.1_H3.1_[G2C]_[T3C]_A3.1_F3.1_T3.1 (ssRNA)
RNA: UCUCUUUCCAUAUAUCUCUU
B26: Ic_S1_P5E.1_K5.1_C5.1_H5.1_A5.1_[T6G]_[A7G]_F5.1_[A10T]_T5.1 (ssRNA)
RNA: UCUCUUUGUAUGGUUUUCUCUU
B27: Ic_S1_P5E.1_K5.1_C5.1_H5.1_A5.1_[T5C]_[T6C]_[A7G]_F5.1_[T8G]_[T9C]_[A10C]_T5.1 (ssRNA)
RNA: UCUCUUUGUACCGGCCUCUCUU
B28: Ic_S1_P5E.1_K5.1_C5.1_H5.1_A5.1_[T5C]_[T6C]_F5.1_[T8G]_[A10C]_T5.1 (ssRNA)
RNA: UCUCUUUGUACCAGUCUCUCUU
B29: Ic_S1_P5E.1_K5.1_C5.1_H5.1_A5.1_[T5G]_[A7C]_F5.1_[T9A]_T5.1 (ssRNA)
RNA: UCUCUUUGUAGUCUAAUCUCUU
B30: Ic_S1_P5E.1_K5.1_C5.1_H5.1_A5.1_[T6A]_[A7C]_F5.1_[T9A]_[A10G]_T5.1 (ssRNA)
RNA: UCUCUUUGUAUACUAGUCUCUU
B31: Ic_S1_P5E.1_K5.1_C5.1_H5.1_A5.1_[T6A]_[A7G]_F5.1_[T8C]_[T9C]_[A10T]_T5.1 (ssRNA)
RNA: UCUCUUUGUAUAGCCUUCUCUU
B32: Ic_S1_P5E.1_K5.1_C5.1_H5.1_A5.1_[T5G]_[T6C]_F5.1_[T9C]_T5.1 (ssRNA)
RNA: UCUCUUUGUAGCAUCAUCUCUU

Target: T1, PUF4 RNA-binding domain
Assay: Mg; RNA-MaP; 20 mM Na-HEPES pH 7.4, 30 mM KOAc, 0.75 mM MgCl2, 0.1% Tween-20, 5% glycerol, 0.1 mg/mL BSA, 2 mM DTT; 25 C; 0.0125-409.6 nM protein
Details: tags: N-His6-TEV cleaved; C-SNAP kept, Cy3B-labelled; label: tethered on chip by stalled RNA polymerase

| Binder | Kd [nM] |
| --- | --- |
| B1 | > 2300 |
| B2 | 45.5 |
| B3 | 51.9 |
| B4 | 1740 |
| B5 | 31.1 |
| B6 | 36 |
| B7 | 662 |
| B8 | 421 |
| B9 | 1050 |
| B10 | 1110 |
| B11 | 324 |
| B12 | 578 |
| B13 | > 2300 |
| B14 | > 2300 |
| B15 | 123 |
| B16 | 11.5 |

| Binder | Kd [nM] |
| --- | --- |
| B17 | 22.4 |
| B18 | 22.4 |
| B19 | 324 |
| B20 | 7.65 |
| B21 | 1980 |
| B22 | 1.94 |
| B23 | 9.57 |
| B24 | 440 |
| B25 | > 2300 |
| B26 | 159 |
| B27 | > 2300 |
| B28 | 363 |
| B29 | 36 |
| B30 | 0.331 |
| B31 | 114 |
| B32 | 287 |
